Values of other authors in paper PMC11417995.

Experiments:
ubiquitin (Homo sapiens) [1] = target: ubiquitin (Homo sapiens) (UniProt P0CG47); test: TR-FRET
ubiquitin (Homo sapiens) [2] = target: ubiquitin (Homo sapiens) (UniProt P0CG47); test: NMR
ubiquitin (Homo sapiens) [3] = target: ubiquitin (Homo sapiens) (UniProt P0CG47); test: SPR

Sequence of CDC34A (P49427 whole entry): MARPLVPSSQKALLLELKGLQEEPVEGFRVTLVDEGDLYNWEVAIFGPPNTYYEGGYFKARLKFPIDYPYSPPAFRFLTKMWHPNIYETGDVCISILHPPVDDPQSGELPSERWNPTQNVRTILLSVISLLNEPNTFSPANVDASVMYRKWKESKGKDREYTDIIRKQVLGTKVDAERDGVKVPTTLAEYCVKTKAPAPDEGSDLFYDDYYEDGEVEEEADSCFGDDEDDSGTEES
Sequence of UBE2K UBA (P61086 157-200): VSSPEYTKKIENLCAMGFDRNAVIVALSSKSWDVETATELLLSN
Sequence of UBE2K (P61086 2-200): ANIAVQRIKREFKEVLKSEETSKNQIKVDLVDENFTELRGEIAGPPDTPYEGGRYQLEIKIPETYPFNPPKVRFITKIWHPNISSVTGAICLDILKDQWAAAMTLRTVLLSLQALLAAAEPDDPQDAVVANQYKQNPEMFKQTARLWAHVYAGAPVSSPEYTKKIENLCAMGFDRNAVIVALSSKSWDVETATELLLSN

In the case of CDC34A (from UniProt P49427), the Kd (ubiquitin (Homo sapiens) [1]) is given as 14 µM.

For UBE2K (from UniProt P61086), the Kd (ubiquitin (Homo sapiens) [2]) is given as 1250 µM.

In the case of UBE2K UBA (from UniProt P61086), the Kd (ubiquitin (Homo sapiens) [3]) is listed as 400 µM.
